This note sets out measurements from paper PMC9800341, “THOC5 complexes with DDX5, DDX17, and CDK12 to regulate R loop structures and transcription elongation rate”.

For one series, the target named is T1, GST-THOC6 WT (UniProt Q86W42 1-341).
T1 sequence: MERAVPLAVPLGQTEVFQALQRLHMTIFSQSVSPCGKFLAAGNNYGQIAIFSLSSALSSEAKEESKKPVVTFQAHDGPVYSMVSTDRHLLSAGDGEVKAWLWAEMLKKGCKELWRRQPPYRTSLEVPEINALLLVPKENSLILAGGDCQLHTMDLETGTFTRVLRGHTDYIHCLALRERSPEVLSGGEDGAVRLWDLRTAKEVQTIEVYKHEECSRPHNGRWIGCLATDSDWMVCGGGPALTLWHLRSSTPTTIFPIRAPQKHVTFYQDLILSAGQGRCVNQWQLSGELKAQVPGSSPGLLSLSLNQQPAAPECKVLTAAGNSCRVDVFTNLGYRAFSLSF
Put plainly: streptavidin pull-down; EMSA: 20 mM Tris pH 7.5, 2 mM DTT, 12 mM MgCl2, 100 mM NaCl, 10% glycerol, 30 min RT; pull-downs: 4 C overnight or 37 C 2 h (Fig S5A: 4 h), buffer not given in. Particulars: protein: recombinant; tags: GST (pGEX-4T1), FLAG; label: 5' biotin on DNA or RNA strand; blunt. A general note: Mobility shift assays separate free from complexed probe on a gel.

The target in series [1] is T2, THOC6-FLAG (UniProt Q86W42 1-341).
T2 sequence: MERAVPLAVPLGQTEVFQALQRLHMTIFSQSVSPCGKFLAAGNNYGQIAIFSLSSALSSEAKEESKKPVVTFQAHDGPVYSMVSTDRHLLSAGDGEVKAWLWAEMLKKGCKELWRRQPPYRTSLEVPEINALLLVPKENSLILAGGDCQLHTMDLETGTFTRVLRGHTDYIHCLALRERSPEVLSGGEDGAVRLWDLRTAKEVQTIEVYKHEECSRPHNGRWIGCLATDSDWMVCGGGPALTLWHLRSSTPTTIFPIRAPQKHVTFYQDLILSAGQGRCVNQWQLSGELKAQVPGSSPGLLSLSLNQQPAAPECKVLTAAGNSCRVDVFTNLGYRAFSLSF
Put plainly: streptavidin pull-down; 4 C overnight or 37 C 2 h; EMSA: 20 mM Tris pH 7.5, 2 mM DTT, 12 mM MgCl2, 100 mM NaCl, 10% glycerol, 30 min RT; pull-downs: 4 C overnight or 37 C 2 h (Fig S5A: 4 h), buffer not given in. Particulars: protein: recombinant; tags: C-terminal FLAG (DYK); label: 5' biotin on DNA or RNA strand; blunt.

Series [2] has as its target T2, THOC6-FLAG. Put plainly: streptavidin pull-down; 4 C overnight or 37 C; EMSA: 20 mM Tris pH 7.5, 2 mM DTT, 12 mM MgCl2, 100 mM NaCl, 10% glycerol, 30 min RT; pull-downs: 4 C overnight or 37 C 2 h (Fig S5A: 4 h), buffer not given in. Particulars: protein: recombinant; tags: C-terminal FLAG (DYK); label: 5' biotin on DNA or RNA strand; blunt.

B1: C4D (C4-ssDNA + C4-ssRNA) (DNA:RNA)
DNA: CCCGGGAGGCGGAGGTTGCAGTGAACCAAGATCGCGCCATTGCACTCCAGCCTGGG
RNA: CCCAGGCUGGAGUGCAAUGGCGCGAUCUUGGUUCACUGCAACCUCCGCCUCCCGGG
As to B1, the binding result with GST-THOC6 WT and with THOC6-FLAG [1] was “binds” throughout.

B2: OSD (OS4D; OS-ssDNA + OS-ssRNA) (DNA:RNA)
DNA: CGCCCTCCCGCCCCCTCGGGGCCCCGCCCCTGGGCCTCTCAGGCCCCTCCCCTGCGCTCC
RNA: GGAGCGCAGGGGAGGGGCCUGAGAGGCCCAGGGGCGGGGCCCCGAGGGGGCGGGAGGGCG
As to B2, in the series with THOC6-FLAG [2], the binding result is “binds”.
